Marks after values point to notes of the source that are not given here.
How the values were obtained:
IGF2^1-156 = molecular target: T1, IGF2^1-156 (Homo sapiens, UniProt P01344); experiment: SPR of IGF forms on Fc-domain 11 proteins immobilised by antibody capture; type: binding
T1 construct: pro-IGF2^1-156 [17 kDa]
Protocol: (§1) SPR analysis of the interaction of recombinant IGF1 and IGF2 forms with Fc-domain 11 proteins immobilised by antibody capture (CM5 chip containing monoclonal mouse anti-human IgG antibody immobilised by amine coupling). Measurements were carried out at 25° C. in HBS-EP buffer (pH 7.4).
(§2) Final kinetic analysis of mutants by SPR was conducted using a Biacore T200 biosensor at 25° C. in either HBS-EP (10 mM HEPES pH 7.4, 150 mM NaCl, 3 mM EDTA, and 0.005% (v/v) surfactant P20) or MES-EP (20 mM MES pH 6.5, 150 mM NaCl, 3 mM EDTA, and 0.005% (v/v) surfactant P20) at a flow-rate of 40 μL min^−1. […] For the analysis of the Fc-domain 11^AB5 interaction, approximately 50 RU of a biotinylated IGF2:biotinylated ubiquitin mixture (1:8 proportion) was immobilized on the CM5-streptavidin chip. This interaction was also analysed by immobilizing the Fc-domain 11^AB5 and Fc-domain 11^AB5-RHH (or Fc-domain 11^I1572A as control) by Human Antibody Capture (monoclonal mouse anti-human IgG antibody immobilised on a CM5 chip by amine coupling, GE Healthcare) with and without human IgG1 Fc fragment (Bethyl Laboratories, UK) in the control flow cell. Increasing concentrations of IGF2^1-67, proIGF2^1-104, proIGF2^1-156 and IGF1 ranging from 0.125 to 32 nM were injected. T200 BiaEvaluation software (GE Healthcare) was used to fit the resulting curves according to a 1:1 binding model. Steady state affinities were determined using the kinetic data, taking the response average at 5 seconds before injection end and for 5 seconds average. Thermodynamic data was performed across the temperature range of 10° C. to 30° C., van't Hoff and Erying plots generated and ΔH, −TΔS and ΔG values determined as previously described.

IGF2^1-67 = molecular target: T2, IGF2^1-67 (Homo sapiens, UniProt P01344); experiment: as above; type: binding; conditions: HBS-EP pH 7.4
T2 construct: Recombinant mature (IGF2^1-67 [7.5 kDa]
Protocol: as §1, §2

IGF2^1-104 = molecular target: T3, IGF2^1-104 (Homo sapiens, UniProt P01344); experiment: as above; type: binding; conditions: HBS-EP pH 7.4
T3 construct: pro-IGF2 (pro-IGF2^1-104 [11 kDa]
Protocol: as §1, §2

SKNMC-IGF2^104 cells = experiment: IGF2-TRAP synthetic lethality screen (resazurin viability); type: cell-based, human; conditions: fixed concentration of IGF2-TRAP alone, assay end point of 72 hrs
Protocol: For synthetic lethality screens (Target Discovery Institute, University of Oxford), either 2,500 or 5,000 SKNMC-IGF2104-IRES-luc cells were plated in medium containing 0.5% charcoal stripped FBS in 384 well plates and the IGF2-TRAP was added 24 h later to half of the plates. Using automated dispensing 307 oncology drugs that have been tested in man (TDI expanded Oncology Drug library) were added to cells 3 hrs later 10 μM, 1 μM, 100 nM and 10 nM, in the presence and absence of 250 nM IGF2-TRAP. After 48 hr of incubation, resazurin was added to a final concentration of 10 μg/mL and the fluorescence (Ex: 560 nm, Em: 590 nm) recorded at 2 hr. […] Pearson's product-moment correlation coefficient (r) was calculated to determine replicate correlation. […]
The interaction score was calculated where v was the viability readout for the drug condition, x^− was the sample mean of the negative controls and s was the sample standard deviation of the negative controls, z was calculated as z_treatment=(v−x^−)/s. z_(no_IT) was calculated from PBS control plates, comparing ‘drug d’ to same-plate negative controls ‘cells+DMSO’. z_IT was calculated from treated plates, comparing ‘drug d+IGF2-TRAP (IT)’ to same-plate negative controls ‘cells+IT+DMSO’. […] Interaction scores were calculated for each replicate r_(d,1)/r_(d,2)/r_(d,3) independently. […]

T2 sequence (P01344 25-91): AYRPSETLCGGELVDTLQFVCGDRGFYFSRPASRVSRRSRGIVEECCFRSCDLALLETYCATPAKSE
T1 sequence (P01344 25-180): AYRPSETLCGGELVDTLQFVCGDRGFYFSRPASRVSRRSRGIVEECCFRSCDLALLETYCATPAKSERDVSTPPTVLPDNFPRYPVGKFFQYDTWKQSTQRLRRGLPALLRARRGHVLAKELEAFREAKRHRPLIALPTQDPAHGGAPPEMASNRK
T3 sequence (P01344 25-128): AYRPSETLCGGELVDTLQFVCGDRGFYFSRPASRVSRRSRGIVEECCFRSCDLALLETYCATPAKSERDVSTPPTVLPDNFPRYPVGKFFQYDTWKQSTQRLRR

B1: Fc-domain 11^AB5-RHH: Fc-fusion of domain 11^AB5-RHH (IGF2-TRAP); IgG2 Fc form purified from CHO cells used for xenografts (protein)
chain: NEHDDCQVTNPSTGHLFDLSSLSGRAGFTAAYAKGWGVYMSICGENENCPPGVGACFGRTRISVGKANKRLRYVDQVLQLVYKDGSHCPSKHGLSYKSVISFVCRPEAGPTNRPMLISLDKQTCTLFFSWHTPLACEQAT
modifications: left off: a dimerising Fc or GST
notes: Fc-fusion of domain 11^AB5-RHH (IGF2-TRAP); IgG2 Fc form purified from CHO cells used for xenografts
In the case of B1, the Kinetics koff (IGF2^1-156; HBS-EP pH 7.4) is reported as 0.0003 s⁻¹, the Kinetics kon (IGF2^1-156; may be inaccurate (mixture of three isoforms)) is reported as 0.23* ×10^6 M^−1s^−1 and the Kinetics koff (IGF2^1-67) is reported as 0.0014 s⁻¹. It also gave a Kinetics kon (IGF2^1-67) of 2.6e+06 M⁻¹ s⁻¹, a Kinetics koff (IGF2^1-104) of 0.0005 s⁻¹ and a Kinetics kon (IGF2^1-104) of 1.29e+06 M⁻¹ s⁻¹. For the same molecule, the “reduction in cell viability” value (SKNMC-IGF2^104 cells) was 10-20%.
